Positions count from the first letter of the chain named. Names may count otherwise. Each block holds one binder with its values, some of them ahead of it.
Columns and labels:
hVISTA-ECD 6-His tag [1] = target: T1, hVISTA-ECD 6-His tag (human, UniProt Q9H7M9 33-193); test: SPR 37 C, Ab on Protein A, pH 6.0
T1 construct: also called monovalent hVISTA-ECD; human VISTA

hVISTA-ECD 6-His tag [2] = target: T1, hVISTA-ECD 6-His tag; test: SPR 37 C, Ab on Protein A, pH 7.4
[3] = target: T2, monovalent hVISTA-ECD with polyhistidine tail (SEQ ID NO: 325) (human, UniProt Q9H7M9 33-193); test: SPR, mAb captured on Protein A chip, hVISTA injected, PBST pH 6.0, 37 C
T2 construct: also called hVISTA-ECD 6-His tag; human VISTA
T2 sequence (Q9H7M9 other isoform, or with tags, fused parts or gaps limits assumed): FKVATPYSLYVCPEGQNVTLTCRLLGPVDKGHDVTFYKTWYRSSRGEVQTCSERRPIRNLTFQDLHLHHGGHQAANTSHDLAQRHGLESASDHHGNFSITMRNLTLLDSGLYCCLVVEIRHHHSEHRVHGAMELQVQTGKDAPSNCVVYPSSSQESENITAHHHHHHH

[4] = target: T2, monovalent hVISTA-ECD with …; test: SPR, mAb captured on Protein A chip, hVISTA injected, PBST pH 7.4, 37 C

T1 sequence (Q9H7M9 other isoform, or with tags, fused parts or gaps limits assumed): as above

B2: P1-061015 (antibody, V domains shown)
VH: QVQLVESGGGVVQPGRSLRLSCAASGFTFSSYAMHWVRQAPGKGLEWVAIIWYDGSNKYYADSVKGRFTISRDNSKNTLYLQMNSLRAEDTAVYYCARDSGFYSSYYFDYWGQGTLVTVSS
VL: EIVLTQSPATLSLSPGERATLSCRASQSVSSSYLAWYQQKPGQAPRLLIYDASNRATGIPARFSGSGSGTDFTLTISSLEPEDFATYYCQQYNSYPYTFGQGTKLEIK
notes: captured on a Protein A chip; also called parental antibody
Kd [3]: 1.9 nM | koff [3]: 0.0016 s⁻¹ | kon [3]: 830000 M⁻¹ s⁻¹ | Kd [4]: 6.4 nM | koff [4]: 0.0022 s⁻¹ | kon [4]: 340000 M⁻¹ s⁻¹

B5: P1-077889 (P1-068748 H32Y D58Y) (antibody, V domains shown)
VH: QVQLVESGGGVVQPGRSLRLSCAASGFTFSHYAMHWVRQAPGKGLEWVAIIWYDGSNDYYADSVKGRFTISRDNSKNTLYLQMNSLRAEDTAVYYCARDSGFYDSYYFDYWGQGTLVTVSS
VL: B2 VL
notes: Reversion mutant of P1-068748 (Kabat names); captured on a Protein A chip
Kd [3]: 130 nM | koff [3]: 0.022 s⁻¹ | kon [3]: 180000 M⁻¹ s⁻¹ | Kd [4]: 2400 nM | koff [4]: 0.073 s⁻¹ | kon [4]: 31000 M⁻¹ s⁻¹

B6: P1-077855 (P1-068744 E31S E59Y) (antibody, V domains shown)
VH: B5 VH with H31S, I50H, D58K, D104E, Y110E
VL: B2 VL
Kd (hVISTA-ECD 6-His tag [1]): 36 nM | koff (hVISTA-ECD 6-His tag [1]): 0.0077 s⁻¹ | kon (hVISTA-ECD 6-His tag [1]): 210000 M⁻¹ s⁻¹ | Kd (hVISTA-ECD 6-His tag [2]): 5200 nM | koff (hVISTA-ECD 6-His tag [2]): 0.061 s⁻¹ | kon (hVISTA-ECD 6-His tag [2]): 12000 M⁻¹ s⁻¹

B7: P1-077881 (P1-068748 D58Y D100S) (antibody, V domains shown)
VH: B5 VH with Y32H, D104S
VL: B2 VL
notes: as for B5
Kd [3]: 53 nM | koff [3]: 0.0034 s⁻¹ | kon [3]: 62000 M⁻¹ s⁻¹ | Kd [4]: 22 nM | koff [4]: 0.0036 s⁻¹ | kon [4]: 160000 M⁻¹ s⁻¹

B9: P1-077845 (P1-068744 E31S H50I) (antibody, V domains shown)
VH: B5 VH with H31S, D58K, Y60E, D104E, Y110E
VL: B2 VL
Kd (hVISTA-ECD 6-His tag [1]): 1.7 nM | koff (hVISTA-ECD 6-His tag [1]): 0.002 s⁻¹ | kon (hVISTA-ECD 6-His tag [1]): 1.2e+06 M⁻¹ s⁻¹ | Kd (hVISTA-ECD 6-His tag [2]): 14 nM | koff (hVISTA-ECD 6-His tag [2]): 0.0038 s⁻¹ | kon (hVISTA-ECD 6-His tag [2]): 280000 M⁻¹ s⁻¹

B13: P1-077869 (P1-068748 D57K) (antibody, V domains shown)
VH: B5 VH with Y32H, D58K, Y59D
VL: B2 VL
notes: as for B5
Kd [3]: 15 nM | koff [3]: 0.0026 s⁻¹ | kon [3]: 170000 M⁻¹ s⁻¹ | Kd [4]: 980 nM | koff [4]: 0.027 s⁻¹ | kon [4]: 28000 M⁻¹ s⁻¹

Continued, values first:

Kd (hVISTA-ECD 6-His tag [1]): 200 nM | koff (hVISTA-ECD 6-His tag [1]): 0.11 s⁻¹ | kon (hVISTA-ECD 6-His tag [1]): 520000 M⁻¹ s⁻¹ | Kd (hVISTA-ECD 6-His tag [2]): 910 nM | koff (hVISTA-ECD 6-His tag [2]): 0.3 s⁻¹ | kon (hVISTA-ECD 6-His tag [2]): 330000 M⁻¹ s⁻¹
B1: P1-077841 (P1-068744 E100S) (antibody, V domains shown)
VH: B5 VH with H31E, I50H, D58K, Y60E, D104S, Y110E
VL: B2 VL

Kd (hVISTA-ECD 6-His tag [1]): 2.3 nM | koff (hVISTA-ECD 6-His tag [1]): 0.0032 s⁻¹ | kon (hVISTA-ECD 6-His tag [1]): 1.4e+06 M⁻¹ s⁻¹ | Kd (hVISTA-ECD 6-His tag [2]): 9.5 nM | koff (hVISTA-ECD 6-His tag [2]): 0.0044 s⁻¹ | kon (hVISTA-ECD 6-His tag [2]): 460000 M⁻¹ s⁻¹
B3: P1-077859 (P1-068744 H50I E100S) (antibody, V domains shown)
VH: B5 VH with H31E, D58K, Y60E, D104S, Y110E
VL: B2 VL

Kd (hVISTA-ECD 6-His tag [1]): 33 nM | koff (hVISTA-ECD 6-His tag [1]): 0.0048 s⁻¹ | kon (hVISTA-ECD 6-His tag [1]): 150000 M⁻¹ s⁻¹ | Kd (hVISTA-ECD 6-His tag [2]): 2000 nM | koff (hVISTA-ECD 6-His tag [2]): 0.034 s⁻¹ | kon (hVISTA-ECD 6-His tag [2]): 18000 M⁻¹ s⁻¹
B4: P1-077843 (P1-068744 E102Y) (antibody, V domains shown)
VH: B5 VH with H31E, I50H, D58K, Y60E, D104E
VL: B2 VL

Kd (hVISTA-ECD 6-His tag [1]): 120 nM | koff (hVISTA-ECD 6-His tag [1]): 0.097 s⁻¹ | kon (hVISTA-ECD 6-His tag [1]): 820000 M⁻¹ s⁻¹ | Kd (hVISTA-ECD 6-His tag [2]): 520 nM | koff (hVISTA-ECD 6-His tag [2]): 0.16 s⁻¹ | kon (hVISTA-ECD 6-His tag [2]): 300000 M⁻¹ s⁻¹
B8: P1-077857 (P1-068744 E31S E100S) (antibody, V domains shown)
VH: B5 VH with H31S, I50H, D58K, Y60E, D104S, Y110E
VL: B2 VL

Kd (hVISTA-ECD 6-His tag [1]): 220 nM | koff (hVISTA-ECD 6-His tag [1]): 0.085 s⁻¹ | kon (hVISTA-ECD 6-His tag [1]): 380000 M⁻¹ s⁻¹ | Kd (hVISTA-ECD 6-His tag [2]): 2200 nM | koff (hVISTA-ECD 6-His tag [2]): 0.3 s⁻¹ | kon (hVISTA-ECD 6-His tag [2]): 150000 M⁻¹ s⁻¹
B10: P1-077851 (P1-068744 E100S E102Y) (antibody, V domains shown)
VH: B5 VH with H31E, I50H, D58K, Y60E, D104S
VL: B2 VL

Kd [3]: 0.71 nM | koff [3]: 0.0012 s⁻¹ | kon [3]: 1.8e+06 M⁻¹ s⁻¹ | Kd [4]: 3.6 nM | koff [4]: 0.003 s⁻¹ | kon [4]: 850000 M⁻¹ s⁻¹
B11: P1-077873 (P1-068748 D100S) (antibody, V domains shown)
VH: B5 VH with Y32H, Y59D, D104S
VL: B2 VL
notes: as for B5

Kd (hVISTA-ECD 6-His tag [1]): 2.6 nM | koff (hVISTA-ECD 6-His tag [1]): 0.0023 s⁻¹ | kon (hVISTA-ECD 6-His tag [1]): 870000 M⁻¹ s⁻¹ | Kd (hVISTA-ECD 6-His tag [2]): 26 nM | koff (hVISTA-ECD 6-His tag [2]): 0.0027 s⁻¹ | kon (hVISTA-ECD 6-His tag [2]): 100000 M⁻¹ s⁻¹
B12: P1-077861 (P1-068744 H50I E102Y) (antibody, V domains shown)
VH: B5 VH with H31E, D58K, Y60E, D104E
VL: B2 VL

From patent US20230192860A1 (Bristol-Myers Squibb, published 2023)
